Test system: MS2 coat protein
Assay: apparent KD of MS2 coat protein; designed switch direction (-1 OFF switch, 1 ON switch): 1; higher = weaker reporter binding
Method in brief: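 For each design, the apparent KD is the median over clusters of curves fitted to normalised cluster fluorescence. Clusters held RNA switches with common flanks, transcribed on Illumina chips by stalled E. coli RNA polymerase. These were titrated with SNAP-549-labelled MS2 coat protein, doubling from 0.7 or 1.5 nM to 3 µM, without input, with 200 uM small-molecule ligand, or with an oligonucleotide input.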

[1] = Eterna round: R95, input ligand: FMN 200 uM
[2] = Eterna round: R95, input ligand: microRNA oligo, concentration not stated
[3] = Eterna round: R95, input ligand: none
[4] = input ligand: microRNA oligo, concentration not stated

UAGAAUCUAUCUCAGGAUAUCAUGUCAAAGACAUGAGGAUCACCCAUGUACCAGGAAACUGGUUAUGAGAAGGGAGAUAGAUUCA [Mat - Same State 2 - Mod - D34] (puzzle: Same State 2)
apparent KD of MS2 coat protein [1]: 124 nM | apparent KD of MS2 coat protein [2]: 98.3 nM | apparent KD of MS2 coat protein [3]: 241 nM

GGAGCCGGCCUAGGAUAUUUCAUUAAAAUACAUGAGGAUCACCCAUGUAGGCCAGAAGGCCUUGGGAAGAAGGAGGUCGGCUCC [Loop Effect - U24,U29] (Eterna round: R96, puzzle: Same State NG 2)
apparent KD of MS2 coat protein (input ligand: FMN 200 uM): 9.56 nM | apparent KD of MS2 coat protein [4]: 17.6 nM | apparent KD of MS2 coat protein (input ligand: none): 23.1 nM

CGGGUCGUGCUAGGAUAUCUAGGAUAUGGACGAGGAUUACCCGAGCAGCAUUAGCGCACCAGAGGAGAGAAGGAGCGUGAUGCG [pwkr ssNG2 2F5 2FMN.15] (Eterna round: R96, puzzle: Same State NG 2)
apparent KD of MS2 coat protein (input ligand: FMN 200 uM): 287 nM | apparent KD of MS2 coat protein [4]: 42.2 nM | apparent KD of MS2 coat protein (input ligand: none): 109 nM

GUUCCACAUGAGGAUCACCCAUGUCACGAACACGCAGGAUAUUGCCUGAGUUUGGACAGGUAAGAAGGGUGAGAGA [Dibeante] (puzzle: Same State 1)
apparent KD of MS2 coat protein [1]: 64.3 nM | apparent KD of MS2 coat protein [2]: 31.9 nM | apparent KD of MS2 coat protein [3]: 28.9 nM

AGAUGUUAAUCAGGAUAUGGGCACAUGAGGAUCACCCAUGUAACGUAGAUACGAUGUGGUCAAGUCUAGAAGGGAUGGCUAACA [SameState NG2 #79] (Eterna round: R96, puzzle: Same State NG 2)
apparent KD of MS2 coat protein (input ligand: FMN 200 uM): 49.9 nM | apparent KD of MS2 coat protein [4]: 68.2 nM | apparent KD of MS2 coat protein (input ligand: none): 90.7 nM

GUCCGGCUGCCACAGGAUAUACGUGGAUCGACAUGAGGAUCACCCAUGUAUAUCCUAAUAAUUGCGUAGAAGGGUGGUCAGCCGG [Dionbe] (puzzle: Same State 2)
apparent KD of MS2 coat protein [1]: 78.3 nM | apparent KD of MS2 coat protein [2]: 540 nM | apparent KD of MS2 coat protein [3]: 1180 nM

AAAGGAUGAUGUUACAUGAGGAUCACCCAUGUUGUGAUAACUAAGGAUAUGUGUUUAACUAGUUAAUAGAAGGUAGGAUCAUAA [AK SSNG3-V2-3] (Eterna round: R96, puzzle: Same State NG 3)
apparent KD of MS2 coat protein (input ligand: FMN 200 uM): 150 nM | apparent KD of MS2 coat protein [4]: 84.2 nM | apparent KD of MS2 coat protein (input ligand: none): 118 nM

AACGUGGGCUAGCAGGAUAUACUGCGAGUAACAUGAGGAUCACCCAUGUUGUCCCGCAAGACAAUGUAGAAGGGCUGAUACCGCG [Atatlaor] (puzzle: Same State 2)
apparent KD of MS2 coat protein [1]: 18.1 nM | apparent KD of MS2 coat protein [2]: 28.4 nM | apparent KD of MS2 coat protein [3]: 26.5 nM

AUGGUGCAGGUACAGGAUAUGUUGCUCGUAACAUGAGGAUCACCCAUGUACCUAUGAGAUUAAAUGCAGAAGGGUGCACACCACU [Mat - Same State 2 - Mod of UCT - D89] (puzzle: Same State 2)
apparent KD of MS2 coat protein [1]: 77.1 nM | apparent KD of MS2 coat protein [2]: 613 nM | apparent KD of MS2 coat protein [3]: 158 nM

CGUCGUUUGCUAGGAUAUCGCUAUACAUGAGGAUCACCCAUGUUUACCACGCUGGUUUUUCAUACCGAGAAGGAGUCUGAUGUU [salish99_SSNG02_r04_020] (Eterna round: R96, puzzle: Same State NG 2)
apparent KD of MS2 coat protein (input ligand: FMN 200 uM): 28.8 nM | apparent KD of MS2 coat protein [4]: 24.8 nM | apparent KD of MS2 coat protein (input ligand: none): 33 nM

UUUGGGUGGCUGGAGGAUAUUCUUGUGGUUACAUGAGGAUCACCCAUGUGCCGCGCGGUGCGCGAGGAGAAGGCUGGCGGCCGUU (puzzle: Same State 2)
apparent KD of MS2 coat protein [1]: 21.7 nM | apparent KD of MS2 coat protein [2]: 48.3 nM | apparent KD of MS2 coat protein [3]: 65.7 nM

AGUCCAGCCUGAGCUGGACAAAAGCAUGUACAUGAGGAUCACCCAUGUCAUGUACAAGCUUUUUGCUCGUCAUAAUA [Mat - hsa-mir-208a - Mod of JL - D28] (puzzle: Sensor for hsa-mir-208a)
apparent KD of MS2 coat protein [1]: 653 nM | apparent KD of MS2 coat protein [2]: 14.9 nM | apparent KD of MS2 coat protein [3]: 710 nM

GGUCCAGCUUUUGCUGGUCCUUCGCUUGCACAUGAGGAUCACCCAUGUCGUGUACAUGCUUGGUGCCCGUCUUUUUU [Photon Torp-16] (puzzle: Sensor for hsa-mir-208a)
apparent KD of MS2 coat protein [1]: 137 nM | apparent KD of MS2 coat protein [2]: 44.9 nM | apparent KD of MS2 coat protein [3]: 229 nM

Reference: the supplement of paper PMC9170038
